Measured values taken from patent EP3492597A2.

Biological target: human hepatocyte growth factor receptor (hHGFR) (human) (UniProt P08581)
Experiment: cell-based or functional assay

UniProt P08581, sequence (P08581 25-1390): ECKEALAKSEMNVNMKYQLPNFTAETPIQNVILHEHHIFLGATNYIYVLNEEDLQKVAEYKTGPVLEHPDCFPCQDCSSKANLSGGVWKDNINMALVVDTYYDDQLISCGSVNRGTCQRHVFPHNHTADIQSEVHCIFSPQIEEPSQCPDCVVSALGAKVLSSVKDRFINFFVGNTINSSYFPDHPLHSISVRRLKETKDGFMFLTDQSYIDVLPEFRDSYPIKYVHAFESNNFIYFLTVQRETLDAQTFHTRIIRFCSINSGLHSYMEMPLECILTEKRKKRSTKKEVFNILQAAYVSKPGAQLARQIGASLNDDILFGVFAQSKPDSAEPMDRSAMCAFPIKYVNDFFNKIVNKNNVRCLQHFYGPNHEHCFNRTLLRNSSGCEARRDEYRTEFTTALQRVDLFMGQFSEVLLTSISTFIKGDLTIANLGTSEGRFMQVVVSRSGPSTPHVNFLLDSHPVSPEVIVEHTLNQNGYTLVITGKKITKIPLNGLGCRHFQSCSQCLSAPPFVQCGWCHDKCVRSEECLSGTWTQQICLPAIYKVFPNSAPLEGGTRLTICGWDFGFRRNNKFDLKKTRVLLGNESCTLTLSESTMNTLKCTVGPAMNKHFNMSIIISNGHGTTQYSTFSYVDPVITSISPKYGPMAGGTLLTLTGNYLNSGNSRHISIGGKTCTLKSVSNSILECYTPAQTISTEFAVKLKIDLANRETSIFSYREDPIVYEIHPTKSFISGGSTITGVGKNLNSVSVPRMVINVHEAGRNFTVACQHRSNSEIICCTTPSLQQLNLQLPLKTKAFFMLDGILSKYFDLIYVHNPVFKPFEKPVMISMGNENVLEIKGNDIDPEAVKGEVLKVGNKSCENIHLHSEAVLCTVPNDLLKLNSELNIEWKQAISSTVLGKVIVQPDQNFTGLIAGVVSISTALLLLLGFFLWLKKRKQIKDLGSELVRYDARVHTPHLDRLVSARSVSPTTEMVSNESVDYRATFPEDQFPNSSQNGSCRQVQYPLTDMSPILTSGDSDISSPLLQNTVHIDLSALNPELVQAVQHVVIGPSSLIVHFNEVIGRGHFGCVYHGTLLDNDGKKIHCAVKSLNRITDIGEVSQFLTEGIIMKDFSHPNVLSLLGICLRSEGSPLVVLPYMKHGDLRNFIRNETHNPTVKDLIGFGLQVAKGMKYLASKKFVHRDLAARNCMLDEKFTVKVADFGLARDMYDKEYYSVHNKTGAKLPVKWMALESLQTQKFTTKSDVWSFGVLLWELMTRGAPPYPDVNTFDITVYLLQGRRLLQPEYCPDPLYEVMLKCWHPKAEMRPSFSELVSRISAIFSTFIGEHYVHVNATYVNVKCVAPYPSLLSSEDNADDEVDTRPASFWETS

Row | Substance | transduction of T47D+hHGFR cells against parental T47D cells | transduction efficiency (EGFP expression, 72 hr) in T47D+hHGFR cells against T47D cells
1 | S663V+T492V mutant AAV3 capsid (rAAV3-S663V+T492V vector) | > 5 fold | 
2 | Y705+731F double-mutant AAV3 capsid (Y705+731F scAAV3-CBAp-EGFP vector) | > 5 fold | 
3 | wild-type AAV3 capsid (scAAV3-CBAp-EGFP vector) | > 5 fold | 8 to 13 fold
